Positions count from the first letter of the chain named. Names and notes keep the numbering of the source.

The data set concerns trimmed trastuzumab (core GlcNAc(Fuc) / core GlcNAc, glycan of formula (1)). Briefly: Glycosyltransfer of sugar derivative to trimmed (Endo S deglycosylated) trastuzumab, MS analysis. The settings on record: for cumulative conversions of the major and minor product, F2-GalNAz transfer: UDP-F2-GalNAz (18) 1 mM, enzyme 0.25 mg/mL; for cumulative conversions of the major and minor product, F2-GalNBzN3 transfer: UDP-F2-GalNBzN3 (24) 1 mM, enzyme 0.5 mg/mL; for major heavy chain product, F2-GalNAz transfer to core GlcNAc(Fuc)-substituted trastuzumab: UDP-F2-GalNAz 0.4 mM, GalNAcT 1 mg/mL, 10 mM MnCl2, pH 8.0, 16 hours, 30° C. It counts as biochemical. The method, then: Trimming of IgG glycans was performed using Endo S from Streptococcus pyogenes (commercially available from Genovis, Lund, Sweden). The IgG (10 mg/mL) was incubated with Endo S (40 U/mL) in 25 mM Tris pH 8.0 for approximately 16 hours at 37° C. The deglycosylated IgG was concentrated and washed with 10 mM MnCl2 and 25 mM Tris-HCl pH 8.0 using an Amicon Ultra-0.5, Ultracel-10 Membrane (Millipore).
Trastuzumab was subjected to the trimming protocol above. Analysis of the trimmed antibody was performed on a JEOL AccuToF equipped with an Agilent 1100 HPLC. Samples (2 μL) were reduced with DTT (2 μL) during 10 min and subsequently diluted with H2O (40 μL) prior to injection. […] The two peaks of heavy chain belonged to one major product (49496 Da, 90% of total heavy chain), resulting from core GlcNAc(Fuc) substituted trastuzumab, and a minor product (49351 Da, ±10% of total heavy chain), resulting from core GlcNac substituted trastuzumab. This is an example of a glycoprotein comprising a glycan according to formula (1).
A solution of 50 μg (modified) IgG, 1 M Tris-HCl pH 8.0, 1 mM EDTA and 30 mM DTT with a total volume of approximately 70 μL was incubated for 20 minutes at 37° C. to reduce the disulfide bridges allowing to analyze both light and heavy chain. If present, azide-functionalities are reduced to amines under these conditions. Reduced samples were washed trice with milliQ using an Amicon Ultra-0.5, Ultracel-10 Membrane (Millipore) and concentrated to 10 μM (modified) IgG. The reduced IgG was analyzed by electrospray ionization time-of-flight (ESI-TOF) on a JEOL AccuTOF. Deconvoluted spectra were obtained using Magtran software.
Enzymatic introduction of galactose derivative (e.g. azido-containing sugar) onto IgG was effected with a GalNAc-transferase or a mutant thereof. The deglycosylated IgG (prepared as described above, 10 mg/mL) was incubated with a modified UDP-galactose derivative (e.g. an azido-modified sugar-UDP derivative) (0.4 mM) and GalNAcT (1 mg/mL) in 10 mM MnCl2 and 25 mM Tris-HCl pH 8.0 for 16 hours at 30° C. The functionalized IgG (e.g. azido-functionalized IgG) was incubated with protein A agarose (40 μL per mg IgG) for 2 hours at 4° C. The protein A agarose was washed three times with PBS and the IgG was eluted with 100 mM glycine-HCl pH 2.7. The eluted IgG was neutralized with 1 M Tris-HCl pH 8.0 and concentrated and washed with PBS using an Amicon Ultra-0.5, Ultracel-10 Membrane (Millipore) to a concentration of 15-20 mg/mL.
Enzymatic introduction of galactose derivative (e.g. thio-containing sugar 21) onto IgG was effected with a GalNAc-transferase or a mutant thereof. The deglycosylated IgG (prepared as described above, 10 mg/mL) was incubated with a modified UDP-galactose derivative (e.g. an thio-modified sugar-UDP derivative) (2 mM) and GalNAcT (0.2 mg/mL) in 10 mM MnCl2 and 50 mM Tris-HCl pH 6.0 for 16 hours at 30° C. The functionalized IgG (e.g. thio-functionalized trastuzumab) was incubated with protein A agarose (40 μL per mg IgG) for 1 hours at rt. The protein A agarose was washed three times with TBS (pH 6.0) and the IgG was eluted with 100 mM glycine-HCl pH 2.5. The eluted IgG was neutralized with 1 M Tris-HCl pH 7.0 and concentrated and washed with 50 mM Tris-HCl pH 6.0 using an Amicon Ultra-0.5, Ultracel-10 Membrane (Millipore) to a concentration of 15-20 mg/mL.

B1: TnGalNAcT(wt): wild-type TnGalNAcT compared with the mutants; probably His6-TnGalNAcT(33-421), SEQ ID NO: 49, from E. coli (protein)
chain: MGSSHHHHHHSSGLVPRGSHMSPLRTYLYTPLYNATQPTLRNVERLAANWPKKIPSNYIEDSEEYSIKNISLSNHTTRASVVHPPSSITETASKLDKNMTIQDGAFAMISPTPLLITKLMDSIKSYVTTEDGVKKAEAVVTLPLCDSMPPDLGPITLNKTELELEWVEKKFPEVEWGGRYSPPNCTARHRVAIIVPYRDRQQHLAIFLNHMHPFLMKQQIEYGIFIVEQEGNKDFNRAKLMNVGFVESQKLVAEGWQCFVFHDIDLLPLDTRNLYSCPRQPRHMSASIDKLHFKLPYEDIFGGVSAMTLEQFTRVNGFSNKYWGWGGEDDDMSYRLKKINYHIARYKMSIARYAMLDHKKSTPNPKRYQLLSQTSKTFQKDGLSTLEYELVQVVQYHLYTHILVNIDERS
modifications: His6-TnGalNAcT(33-421)
For the molecule B1, under “overnight”, the “cumulative conversions of the major and minor product, F2-GalNAz transfer” value (shortened to “cumulative conversions … F2-GalNAz transfer”) came out at 95%; the “cumulative conversions of the major and minor product, F2-GalNBzN3 transfer” value (shortened to “cumulative conversions … F2-GalNBzN3 transfer”) is 14%.

B2: TnGalNAcT(W336F): T. ni GalNAcT mutant, tryptophan 336 to phenylalanine, SEQ ID NO: 50 (protein)
chain: B1 chain with W325F
modifications: His6-TnGalNAcT(33-421; W336F)
B2: for the setting “overnight”, the “cumulative conversions … F2-GalNAz transfer” value is recorded as 24%.

B3: TnGalNAcT(L302G): T. ni GalNAcT mutant, leucine 302 to glycine, SEQ ID NO: 44 (protein)
chain: B1 chain with L291G
modifications: His6-TnGalNAcT(33-421; L302G)
For the molecule B3, the “cumulative conversions … F2-GalNBzN3 transfer” value (overnight) is given as 14%.

B4: TnGalNAcT(L302A): T. ni GalNAcT mutant, leucine 302 to alanine, SEQ ID NO: 43 (protein)
chain: B1 chain with L291A
modifications: His6-TnGalNAcT(33-421; L302A)
As for B4, under “overnight”, the “cumulative conversions … F2-GalNAz transfer” value is on record as 95%; the “cumulative conversions … F2-GalNBzN3 transfer” value was 37%.

B5: TnGalNAcT(W336V): T. ni GalNAcT mutant, tryptophan 336 to valine, SEQ ID NO: 52 (protein)
chain: B1 chain with W325V
modifications: His6-TnGalNAcT(33-421; W336V)
On to B5, for which the “cumulative conversions … F2-GalNAz transfer” value (overnight) amounted to 27%.

B6: TnGalNAcT(E339A): T. ni GalNAcT mutant, glutamic acid 339 to alanine, SEQ ID NO: 53 (protein)
chain: B1 chain with E328A
modifications: His6-TnGalNAcT(33-421; E339A)
For the molecule B6, the “cumulative conversions … F2-GalNAz transfer” value (overnight) is 5%.

B7: AsGalNAcT: truncated Ascaris suum β-(1,4)-GalNAcT, amino acids 30-383 of SEQ ID NO: 3 (SEQ ID NO: 7) (protein)
chain: DYSFWSPAFIISAPKTLTTLQPFSQSTSTNDLAVSALESVEFSMLDNSSILHASDNWTNDELVMRAQNENLQLCPMTPPALVGPIKVWMDAPSFAELERLYPFLEPGGHGMPTACRARHRVAIVVPYRDRESHLRTFLHNLHSLLTKQQLDYAIFVVEQTANETFNRAKLMNVGYAEAIRLYDWRCFIFHDVDLLPEDDRNLYSCPDEPRHMSVAVDKFNYKLPYGSIFGGISALTREQFEGINGFSNDYWGWGGEDDDLSTRVTLAGYKISRYPAEIARYKMIKHNSEKKNPVNRCRYKLMSATKSRWRNDGLSSLSYDLISLGRLPLYTHIKVDLLEKQSRRYLRTHGFPTC
modifications: AsGalNAcT (30-383)
Consider B7, for which the “major heavy chain product, F2-GalNAz transfer to core GlcNAc(Fuc)-substituted trastuzumab” value is listed as “approximately 90 % of total heavy chain”. The “major product, GalNButN3 transfer to core GlcNAc(Fuc) substituted trastuzumab” value (UDP-GalNButN3 0.7 mM, AsGalNAcT(wt) 0.2 mg/mL, overnight) was 50 % of total heavy chain. Moreover, under “UDP-GalNProSH 2 mM, AsGalNAcT 0.2 mg/mL, overnight”, the “major product, GalNProSH transfer to core GlcNAc(Fuc) substituted trastuzumab” value is 95 % of total heavy chain. Further, the “major product, GalNPropN3 transfer to core GlcNAc(Fuc) substituted trastuzumab” value (UDP-GalNPropN3 0.7 mM, AsGalNAcT 0.2 mg/mL, overnight) was 70 % of total heavy chain.

B8: DmGalNAcT: truncated Drosophila melanogaster β-(1,4)-GalNAcT, amino acids 47-403 of SEQ ID NO: 5 (SEQ ID NO: 9) (protein)
chain: HKYAHIYGNASSDGAGGSEASRLPASPLALSKDRERDQELNGGPNSTIRTVIATANFTSIPQDLTRFLLGTKKFLPPRQKSTSALLANCTDPDPRDGGPITPNTTLESLDVIEAELGPLLRPGGAFEPENCNAQHHVAIVVPFRDRYAHLLLFLRNIHPFLMKQRIAYRIFIVEQTNGKPFNRAAMMNIGYLEALKLYQWDCFIFHDVDLLPLDDRNLYNCPRQPRHMSVAIDTLNFRLPYRSIFGGVSAMTREHFQAVNGFSNSFFGWGGEDDDMSNRLKHANLFISRYPVNIARYKMLKHQKEKANPKRYENLQNGMSKIEQDGINSIKYSIYSIKQFPTFTWYLAELKNSERKS
modifications: DmGalNAcT (47-403)
For the molecule B8, the “major heavy chain product, F2-GalNAz transfer to core GlcNAc(Fuc)-substituted trastuzumab” value is recorded as “approximately 90 % of total heavy chain”.

B9: TnGalNAcT(W336H): T. ni GalNAcT mutant, tryptophan 336 to histidine, SEQ ID NO: 51 (protein)
chain: MGGRATRALRLLLLLVLALAAVEYLFGSILDASPLRTYLYTPLYNATQPTLRNVERLAANWPKKIPSNYIEDSEEYSIKNISLSNHTTRASVVHPPSSITETASKLDKNMTIQDGAFAMISPTPLLITKLMDSIKSYVTTEDGVKKAEAVVTLPLCDSMPPDLGPITLNKTELELEWVEKKFPEVEWGGRYSPPNCTARHRVAIIVPYRDRQQHLAIFLNHMHPFLMKQQIEYGIFIVEQEGNKDFNRAKLMNVGFVESQKLVAEGWQCFVFHDIDLLPLDTRNLYSCPRQPRHMSASIDKLHFKLPYEDIFGGVSAMTLEQFTRVNGFSNKYWGHGGEDDDMSYRLKKINYHIARYKMSIARYAMLDHKKSTPNPKRYQLLSQTSKTFQKDGLSTLEYELVQVVQYHLYTHILVNIDERS
As to B9, where the note is “overnight”, the “cumulative conversions … F2-GalNBzN3 transfer” value was 62%.

B10: TnGalNAcT(I299M): T. ni GalNAcT mutant, isoleucine 299 to methionine, SEQ ID NO: 45 (protein)
chain: B9 chain with I299M, H336W
With B10, the “cumulative conversions … F2-GalNBzN3 transfer” value (overnight) turned out to be 26%.

These data come from US11046988B2, “Process for the modification of a glycoprotein using a β-(1,4)-N-acetylgalactosaminyl transferase or a mutant thereof” (Synaffix B.V., priority 2014, dated 2021).
